In paper PMC9676983:

Assays:
Assay in all cases: SEC
[1] = target: α-synuclein A30P (UniProt P37840)
[2] = target: α-synuclein A53T (UniProt P37840)
[3] = target: α-synuclein E46K (UniProt P37840)

## α-synuclein A30P (from UniProt P37840 1-140) (natural protein)
[1]
  fraction of oligomers: 71.6%

## α-synuclein A53T (from UniProt P37840 1-140) (natural protein)
[2]
  fraction of oligomers: 87.8%

## α-synuclein E46K (from UniProt P37840 1-140) (natural protein)
[3]
  fraction of oligomers: 92.1%
